Reference: article PMC2756588

Assays:
Assay in all cases: SPOT array
[1] = molecular target: T1, Abp1, P15891; conditions: median of control spots 935
T1 sequence (P15891 535-592, looked up): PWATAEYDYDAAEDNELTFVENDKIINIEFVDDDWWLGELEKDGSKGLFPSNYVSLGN

[2] = molecular target: T2, Bbc1, P47068; conditions: median of control spots 796
T2 sequence (P47068 1-78, looked up): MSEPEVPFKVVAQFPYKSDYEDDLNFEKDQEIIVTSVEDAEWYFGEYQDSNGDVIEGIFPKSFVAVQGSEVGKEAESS

[3] = molecular target: Bem1-1, P29366; conditions: median of control spots 4282
[4] = molecular target: Bem1-2, P29366; conditions: median of control spots 4347
[5] = molecular target: T3, Boi1, P38041; conditions: median of control spots 1162
T3 sequence (P38041 1-86, looked up): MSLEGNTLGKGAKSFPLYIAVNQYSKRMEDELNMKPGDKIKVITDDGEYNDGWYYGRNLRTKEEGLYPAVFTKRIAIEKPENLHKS

[6] = molecular target: T4, Boi2, P39969; conditions: median of control spots 1161
T4 sequence (P39969 32-116, looked up): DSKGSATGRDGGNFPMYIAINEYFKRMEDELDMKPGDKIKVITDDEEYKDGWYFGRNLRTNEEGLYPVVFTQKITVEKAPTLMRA

[7] = molecular target: T5, Bud14, P27637; conditions: median of control spots 956
T5 sequence (P27637 247-328, looked up): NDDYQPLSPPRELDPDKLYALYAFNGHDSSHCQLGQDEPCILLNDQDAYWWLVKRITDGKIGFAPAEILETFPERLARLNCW

[8] = molecular target: T6, Bzz1-1, P38822; conditions: median of control spots 4446
T6 sequence (P38822 478-572, looked up): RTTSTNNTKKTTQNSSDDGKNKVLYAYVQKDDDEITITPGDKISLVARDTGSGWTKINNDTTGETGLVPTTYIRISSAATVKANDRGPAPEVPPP

[9] = molecular target: T7, Bzz1-2, P38822; conditions: median of control spots 4538
T7 sequence (P38822 568-633, looked up): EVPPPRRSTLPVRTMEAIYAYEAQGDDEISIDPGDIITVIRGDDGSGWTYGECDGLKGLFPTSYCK

[10] = molecular target: T8, Cdc25, P04821; conditions: median of control spots 969
T8 sequence (P04821 50-136, looked up): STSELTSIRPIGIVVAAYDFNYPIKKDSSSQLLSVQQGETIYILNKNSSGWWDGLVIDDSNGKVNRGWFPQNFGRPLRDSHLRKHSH

[11] = molecular target: T9, Cyk3, Q07533; conditions: median of control spots 1451
T9 sequence (Q07533 1-83, looked up): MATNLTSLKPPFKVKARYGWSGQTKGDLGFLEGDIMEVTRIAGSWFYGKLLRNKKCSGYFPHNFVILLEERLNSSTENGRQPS

[12] = molecular target: T10, Fus1, P11710; conditions: median of control spots 1200
T10 sequence (P11710 432-512, looked up): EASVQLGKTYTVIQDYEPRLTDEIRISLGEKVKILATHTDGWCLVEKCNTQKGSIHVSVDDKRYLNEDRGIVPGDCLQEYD

[13] = molecular target: GST; conditions: median of control spots 978
[14] = molecular target: T11, Hof1, Q05080; conditions: median of control spots 4086
T11 sequence (Q05080 590-669, looked up): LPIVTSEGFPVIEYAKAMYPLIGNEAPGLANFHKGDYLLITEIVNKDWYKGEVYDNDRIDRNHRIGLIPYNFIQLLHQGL

[15] = molecular target: T12, Hse1, P38753; conditions: median of control spots 1727
T12 sequence (P38753 208-285, looked up): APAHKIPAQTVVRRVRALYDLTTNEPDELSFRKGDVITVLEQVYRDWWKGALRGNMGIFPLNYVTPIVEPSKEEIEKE

[16] = molecular target: T13, Lsb1, P53281; conditions: median of control spots 388
T13 sequence (P53281 45-122, looked up): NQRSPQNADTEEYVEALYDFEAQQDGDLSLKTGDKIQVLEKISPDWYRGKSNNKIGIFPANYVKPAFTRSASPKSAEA

[17] = molecular target: T14, Lsb3, P43603; conditions: median of control spots 406
T14 sequence (P43603 385-451, looked up): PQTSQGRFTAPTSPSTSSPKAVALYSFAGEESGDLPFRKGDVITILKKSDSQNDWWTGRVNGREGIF

[18] = molecular target: T15, Lsb4, P32793; conditions: median of control spots 397
T15 sequence (P32793 402-468, looked up): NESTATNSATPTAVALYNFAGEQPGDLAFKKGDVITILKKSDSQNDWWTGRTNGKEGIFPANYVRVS

[19] = molecular target: Myo3, P36006; conditions: median of control spots 468
[20] = molecular target: T16, Myo5, Q04439; conditions: median of control spots 471
T16 sequence (Q04439 1072-1160, looked up): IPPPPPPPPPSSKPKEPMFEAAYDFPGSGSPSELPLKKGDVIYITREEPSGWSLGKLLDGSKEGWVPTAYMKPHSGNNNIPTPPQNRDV

[21] = molecular target: T17, Nbp2, Q12163; conditions: median of control spots 357
T17 sequence (Q12163 103-180, looked up): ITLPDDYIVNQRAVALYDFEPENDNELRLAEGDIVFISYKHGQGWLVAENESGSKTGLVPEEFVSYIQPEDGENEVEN

[22] = molecular target: T18, Pex13, P80667; conditions: median of control spots 1341
T18 sequence (P80667 295-386, looked up): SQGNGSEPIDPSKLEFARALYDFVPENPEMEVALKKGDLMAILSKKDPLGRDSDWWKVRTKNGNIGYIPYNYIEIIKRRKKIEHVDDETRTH

[23] = molecular target: T19, Pin3, Q06449; conditions: median of control spots 2171
T19 sequence (Q06449 53-122, looked up): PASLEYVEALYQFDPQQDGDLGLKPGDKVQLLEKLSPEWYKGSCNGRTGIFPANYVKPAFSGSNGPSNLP

[24] = molecular target: Rvs167, P39743; conditions: median of control spots 2707
[25] = molecular target: Sho1, P40073; conditions: median of control spots 1148
[26] = molecular target: T20, Sla1-2, P32790; conditions: median of control spots 712
T20 sequence (P32790 60-140, looked up): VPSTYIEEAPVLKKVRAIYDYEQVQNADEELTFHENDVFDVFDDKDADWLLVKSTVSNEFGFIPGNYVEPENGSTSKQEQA

[27] = molecular target: T21, Sla1-3, P32790; conditions: median of control spots 5475
T21 sequence (P32790 344-424, looked up): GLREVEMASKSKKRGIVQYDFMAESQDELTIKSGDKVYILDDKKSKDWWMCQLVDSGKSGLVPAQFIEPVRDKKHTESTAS

Sequence of Rvs167, P39743 (P39743 419-482): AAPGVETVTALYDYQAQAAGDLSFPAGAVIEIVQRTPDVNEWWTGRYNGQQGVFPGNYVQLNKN
Sequence of Sho1, P40073 (P40073 287-367): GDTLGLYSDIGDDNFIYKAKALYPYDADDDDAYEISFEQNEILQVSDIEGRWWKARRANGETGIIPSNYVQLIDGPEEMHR
Sequence of Bem1-2, P29366 (P29366 139-227): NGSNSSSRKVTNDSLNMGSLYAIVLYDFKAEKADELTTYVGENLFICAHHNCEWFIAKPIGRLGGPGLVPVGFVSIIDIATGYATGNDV
Sequence of Bem1-1, P29366 (P29366 55-141): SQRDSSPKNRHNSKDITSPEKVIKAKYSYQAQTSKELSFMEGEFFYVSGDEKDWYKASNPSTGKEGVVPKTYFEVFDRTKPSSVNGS

Binder	SPOT intensity [1]	SPOT intensity [2]	SPOT intensity [3]	SPOT intensity [4]	SPOT intensity [5]	SPOT intensity [6]	SPOT intensity [7]	SPOT intensity [8]	SPOT intensity [9]	SPOT intensity [10]	SPOT intensity [11]	SPOT intensity [12]	SPOT intensity [13]	SPOT intensity [14]	SPOT intensity [15]	SPOT intensity [16]	SPOT intensity [17]	SPOT intensity [18]	SPOT intensity [19]	SPOT intensity [20]	other results
RTIRKLPLMSLSEYF	13	3	0	0	1	0	6	2	0	6	1	24	0	20	2	15	3	2	3	1	SPOT intensity [21]: 1; SPOT intensity [22]: 12; SPOT intensity [23]: 27; SPOT intensity [24]: 0; SPOT intensity [25]: 6; SPOT intensity [26]: 1; SPOT intensity [27]: 19
NRARYLPQNPDIIAG	5	2	0	0	3	0	11	0	0	9	0	0	0	4	3	1	1	0	0	0	SPOT intensity [21]: 1; SPOT intensity [22]: 0; SPOT intensity [23]: 2; SPOT intensity [24]: 0; SPOT intensity [25]: 10; SPOT intensity [26]: 0; SPOT intensity [27]: 11
HVRRSILALPLGVLL	23	1	0	0	3	1	14	0	0	20	2	16	0	0	0	47	0	4	3	1	SPOT intensity [21]: 0; SPOT intensity [22]: 3; SPOT intensity [23]: 2; SPOT intensity [24]: 2; SPOT intensity [25]: 35; SPOT intensity [26]: 0; SPOT intensity [27]: 0
IKTRSVPKIPSIESV	9	10	3	0	1	1	2	2	2	2	0	0	0	38	0	266	257	166	5	0	SPOT intensity [21]: 12; SPOT intensity [22]: 32; SPOT intensity [23]: 15; SPOT intensity [24]: 1340; SPOT intensity [25]: 4; SPOT intensity [26]: 1; SPOT intensity [27]: 6
